Source: patent US20030200555

Target: T1, coumarin-CO-REVNFEVEFR
T1 chain: REVNFEVEFR

B1: BACE 1, soluble (transmembrane domain and cytoplasmic extension excluded) human protein produced in a baculovirus expression system (protein)
chain: TQHGIRLPLRSGLGGAPLGLRLPRETDEEPEEPGRRGSFVEMVDNLRGKSGQGYYVEMTVGSPPQTLNILVDTGSSNFAVGAAPHPFLHRYYQRQLSSTYRDLRKGVYVPYTQGKWEGELGTDLVSIPHGPNVTVRANIAAITESDKFFINGSNWEGILGLAYAEIARPDDSLEPFFDSLVKQTHVPNLFSLQLCGAGFPLNQSEVLASVGGSMIIGGIDHSLYTGSLWYTPIRREWYYEVIIVRVEINGQDLKMDCKEYNYDKSIVDSGTTNLRLPKKVFEAAVKSIKAASSTEKFPDGFWLGEQLVCWQAGTTPWNIFPVISLYLMGEVTNQSFRITILPQQYLRPVEDVATSQDDCYKFAISQSSTGTVMGAVIMEGFYVVFDRARKRIGFAVSACHVHDEFRTAAVEGPFVTLDMEDCGYNIPQTDESTLMT
  Km: The Km of the substrate is greater than 100 µM and cannot be determined due to the limit of solubility of the substrate
